These results are taken from the RNAGym collection of RNA variant scans (doi:10.1073/pnas.2313332121).

The chains are these.
B1: TPR 5TU (parent)
chain: GGAUCUUCUCGAUCUAACAAAAAAGACAAAUCUGCCACAAAGCUUGAGAGCAUCUUCGGAUGCAGAGGCGGCAGCCUUCGGUGGCGCGAUAGCGCCAACGUUCUCAACUAUGACACGCAAAACGCGUGCUCCGUUGAAUGGAGUUUAUCAUG

This sample holds only a part of the variants without activity.

The variants in the data set derive from B1. Briefly: polymerase ribozyme fitness, log enrichment relative to wild type (log ratio); higher = more active; in vitro selection for triplet polymerase activity. Summed up:
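PCR was used to build mutant libraries for each subunit of a heterodimeric triplet polymerase ribozyme, which were then transcribed. A single in vitro selection round, in triplicate, used a frozen incubation at −7 °C and recovered extended constructs by gel excision, streptavidin beads and RT-PCR. Fitness is the logarithm of genotype enrichment relative to wild-type enrichment, averaged over replicates with inverse-variance weights. The logarithm is base 2, and after Illumina sequencing only genotypes with ≥10 input reads and ≥1 read per output were kept.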
As to A12U A91U, the “polymerase ribozyme fitness (log ratio)” value was at most -4.2.
Next, U55A G80A C85A: -1.39.
Next, U4A A19U A24U C35A C57G A60C U101G: at most -4.2.
Next, G100U C131U: at most -4.2; A16C C85U A106U G126A: -3.28; C32G G48U G68A U134A U145C: at most -4.2.
G62C: the “polymerase ribozyme fitness (log ratio)” value was -1.07.
In the case of C10G A21U A22U U55A G59C A142C, the “polymerase ribozyme fitness (log ratio)” value is at most -4.2.
Next, C85A C118A: -0.973; U56A G141A: 0.775.
As for A40C C85A G92U A119C A147C, the figure is at most -4.2; as for A26G C99U, -3.69; as for C63U C75U C76U G80A U82A C108G C114U U148C, at most -4.2.
As for C75A C95U A98U C103U U145G U146G, the figure is at most -4.2; as for A49C C75G G83U G141A U146A, at most -4.2; as for C38G C43U C87A C132G U135G G136C U146A, at most -4.2.
For the variant A22G G86C, the “polymerase ribozyme fitness (log ratio)” value is -1.67.
As for A52C G84A C116G A120U, the figure is -1.12; as for A21U C36A, -3.4; as for A12G G48C U56A G70A G83U, at most -4.2.
Next, C69G C72U: -2.71; C32A G84U A97G C131U U139C: at most -4.2.
Consider G25U C27U C93U G143U, for which the “polymerase ribozyme fitness (log ratio)” value is at most -4.2.
As for C14A C36U U45C C87U C105A G133U, the figure is at most -4.2.
Take A24U U151A: the “polymerase ribozyme fitness (log ratio)” value is at most -4.2.
With C54U C87U G92C, the “polymerase ribozyme fitness (log ratio)” value was -0.365.
Turning to U82A G126A, the “polymerase ribozyme fitness (log ratio)” value was determined as 1.28.
Next, A91C G152U: at most -4.2; U33A G86A A142G: at most -4.2; A12U A97U: -0.954.
Regarding G25C U33A C69G G71A, the “polymerase ribozyme fitness (log ratio)” value is at most -4.2.
In the case of A23C A24U C57U G58A U61A C93G C103U C118U, the “polymerase ribozyme fitness (log ratio)” value was at most -4.2.
Regarding C38U A73G G83U A91U A97U A110G, the “polymerase ribozyme fitness (log ratio)” value is at most -4.2.
Next, C38A U55A: -0.143; U44G A47C A66G G67A C87A C96G U145A: at most -4.2.
Next, A29U G94U U109A: at most -4.2; C69A G94C: -0.673.
Next, A47U U53A: -1.33.
On to C87U C105G A121U A122U, for which the “polymerase ribozyme fitness (log ratio)” value was -1.19.
Next, A60G G128U: -2.75.
As to A23C A26U U33G C76A U101G U145G, the “polymerase ribozyme fitness (log ratio)” value is at most -4.2.
On to G86A G141U, for which the “polymerase ribozyme fitness (log ratio)” value was -1.07.
As to G11C U56A G86A, the “polymerase ribozyme fitness (log ratio)” value was at most -4.2.
Turning to A37U G80C G81C U102A A110U C118G A120U G133U, the “polymerase ribozyme fitness (log ratio)” value was at most -4.2.
As for A19U A37U U44G A66U G92U C96A C123U G124A, the figure is at most -4.2; as for A22G C36A G48A C95G G140C, at most -4.2; as for G86A C103G C123U, -3.36.
Regarding A52C C85U A147G, the “polymerase ribozyme fitness (log ratio)” value is -3.76.
Next, U55C C85U G136C: -3.51; A23U A150G: at most -4.2; C27A G71U: at most -4.2.
Next, C38A U53A A60U C93G C131A G141C: -3.94.
As to C87G C149U, the “polymerase ribozyme fitness (log ratio)” value was at most -4.2.
Next, G86C U109G C118G: -3.5; C87G G141C: -3.99; A107C A110G A121G: at most -4.2.
Next, A23G G59A G68U A142U: at most -4.2; G48U C118G: -0.339; G83U C149U: -1.76.
For the variant C14U A28U C96G, the “polymerase ribozyme fitness (log ratio)” value is at most -4.2.
Next, U101G A113U: -1.25.
As for C14U G94A, the figure is -1.85; as for U6G A39C C85A A98G G126C, -3.91.
Next, C14G A19G G46A C72G G84U: at most -4.2; C35U A73U C75G C76G U90C: at most -4.2; G92A U127A A150U: -4.1.
On to A20C C36A A49U U56G A91U U146C, for which the “polymerase ribozyme fitness (log ratio)” value was at most -4.2.
As for G92U C118A, the figure is -1.05; as for G50A C87U, -1.74; as for A22U U135C, -1.64.
As for G50C G59A, the figure is -3.03; as for U61A A142G, -1.25; as for U13A C57G C96A, -1.81.
Consider U15C A21C U56C G83A, for which the “polymerase ribozyme fitness (log ratio)” value was -0.11.
C18A A30G C38U G48C G71A A89U C96U A97C: the “polymerase ribozyme fitness (log ratio)” value is at most -4.2.
As for U4A A17C G94A C149U, the figure is -1.61; as for C57G G58A A91G, -3.24; as for G25A C54U C96U A150U, -0.00287.
Next, G58U C72U C87U C99G G141C: at most -4.2.
As for A21U C87U, the figure is -0.254.
As for G50C A64C U82G C87G A106U A122C, the “polymerase ribozyme fitness (log ratio)” value was at most -4.2.
Regarding G86A C116G A150C, the “polymerase ribozyme fitness (log ratio)” value is -3.93.
As to C54U U55A C76A A91U C95A C103A C131G A138U, the “polymerase ribozyme fitness (log ratio)” value was at most -4.2.
As for A20U G42C C75A C105U C116U A120G G128A U146A, the figure is at most -4.2.
